Measurements published in patent publication US20220184124A1.

Target: CD19 on Daudi cells (CD19 positive target tumor cells) (UniProt P15391)
Test: cell-based or functional assay

Sequence of UniProt P15391 (P15391 20-556 limits assumed): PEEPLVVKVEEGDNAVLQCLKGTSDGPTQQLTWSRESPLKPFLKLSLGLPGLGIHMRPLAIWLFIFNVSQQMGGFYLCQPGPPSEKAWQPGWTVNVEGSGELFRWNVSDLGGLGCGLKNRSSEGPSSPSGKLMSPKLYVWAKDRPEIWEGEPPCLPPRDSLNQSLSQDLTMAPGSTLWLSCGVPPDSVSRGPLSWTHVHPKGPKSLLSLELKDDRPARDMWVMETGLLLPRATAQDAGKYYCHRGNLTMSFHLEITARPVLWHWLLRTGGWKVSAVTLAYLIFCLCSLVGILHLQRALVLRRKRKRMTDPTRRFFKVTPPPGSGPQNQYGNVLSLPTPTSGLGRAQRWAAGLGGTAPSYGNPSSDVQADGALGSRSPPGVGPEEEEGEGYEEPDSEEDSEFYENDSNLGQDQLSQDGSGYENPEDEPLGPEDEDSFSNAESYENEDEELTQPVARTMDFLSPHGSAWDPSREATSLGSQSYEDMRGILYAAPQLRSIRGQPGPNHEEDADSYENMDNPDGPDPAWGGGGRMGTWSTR

Question: Which results are given for “CD19(4G7) scFv/4-1BB/CD3ζ CAR (receptor)”?
Answer: % CD107a+ of CD4+ T cells, 6 hr co-culture with Daudi cells: 30.4%; % CD107a+ of CD8+ T cells, 6 hr co-culture with Daudi cells: 44.6%; % CD107a+ of NK cells (CD5-CD56+), co-culture with Daudi cells: 32.5%; % CD107a+ of NKT cells, 6 hr co-culture with Daudi cells: 48.6%; % CD107a+ of TCRγδ T cells, co-culture with Daudi cells: 23.2%; % CD107a+ of residual TCRαβ+ cells, 6 hr co-culture with Daudi cells: 64.8%; % IFNγ+ of CD8+ T cells, co-culture with Daudi cells: 16.7%; % IFNγ+ of NKT cells, co-culture with Daudi cells: 24.8%; % IFNγ+ of TCRγδ T cells, co-culture with Daudi cells: 7.46%; % IFNγ+ of residual TCRαβ+ cells, co-culture with Daudi cells: 50.9%; % IL2+ of CD8+ T cells, co-culture with Daudi cells: 0.69%; % IL2+ of NKT cells, co-culture with Daudi cells: 1.07%; % IL2+ of TCRγδ T cells, co-culture with Daudi cells: 0.23%; % IL2+ of residual TCRαβ+ cells, co-culture with Daudi cells: 13.9%; % TNFα+ of CD8+ T cells, co-culture with Daudi cells: 21.5%; % TNFα+ of NKT cells, co-culture with Daudi cells: 28.3%; % TNFα+ of TCRγδ T cells, co-culture with Daudi cells: 12.9%; % TNFα+ of residual TCRαβ+ cells, co-culture with Daudi cells: 50%
